Assay results as given in the DeepSol protein solubility set.

assay: soluble on expression in E. coli; label from the status in PepcDB or PDB records

Sequence | soluble on expression in E. coli
RQPSSLPEGLPAPLEKRVKELAQAARAAEGESRQKFFTQDINGILLDIEAQTRELSSQVRSGVYAYLASFLPCSKDALLKRARKLHLYEQGGRLKEPLQKLKEAIGRAMPEQMAKYQDECQAHTQAKVAKMLEEEKDKEQRDRICSDEEEDEEKGGRRIMGPRKKFQWNDEIRELLCQVVKIKLESQDLERNNKAQAWEDCVKGFLDAEVKPLWPKGWMQARTLFKESRRGHGHLTSILAKKKVMAPSKIKVKESSTKPDKKVSVPSGQIGGPIALPSDHQTGGLSIGASSRELPSQASGGLANPPPVNLEDSLDEDLIRNPASSVEAVSKELAALNSRAAGNS | not soluble
RRAKALLDFERHDDDELGFRKNDIITIISQKDEHCWVGELNGLRGWFPAKFVEVLDERSKEYSIA | soluble
RRKQQAPRRAAAYVSEELKAAALVDEGLDPEEHTADGEPSAKYMCPEKELARACPSYQNSPAAEFSCHEMDSESHISETSDRMADFESGSIKNEEETKEVTVPLEDTTVSDSLEQMKAVYNNFLSNSYWSNLNLNLHQPSSEKNNGSSSSSSSSSSSCGSGSFDWHQSAMAKTLQQVSQSRMLPEPSLFSTVQLYRQSSKLYGSIFTGASKFRCKDCSAAYDTLVELTVHMNETGHYRDDNHETDNNNPKRWSKPRKRSLLEMEGKEDAQKVLKCMYCGHSFESLQDLSVHMIKTKHYQKVPLKEPVTPVAAKIIPATRKKASLELELPSSPDSTGGTPKATISDTNDALQKNSNPYITPNNRYGHQNGASYAWHFEARKSQILKCMECGSSHDTLQELTAHMMVTGHFIKVTNSAMKKGKPIVETPVTPTITTLLDEKVQSVPLAATTFTSPSNTPASISPKLNVEVKKEVDKEKAVTDEKPKQKDKPGEEEEKCDISSKYHYLTENDLEESPKGGLDILKSLENTVTSAINKAQNGTPSWGGYPSIHAAYQLPNMMKLSLGSSGKSTPLKPMFGNSEIVSPTKNQTLVSPPSSQTSPMPKTNFHAMEELVKKVTEKVAKVEEKMKEPDGKLSPPKRATPSPCSSEVGEPIKMEASSDGGFRSQENSPSPPRDGCKDGSPLAEPVENGKELVKPLASSLSGSTAIITDHPPEQPFVNPLSALQSVMNIHLGKAAKPSLPALDPMSMLFKMSNSLAEKAAVATPPPLQSKKADHLDRYFYHVNNDQPIDLTKGKSDKGCSLGSVLLSPTSTAPATSSSTVTTAKTSAVVSFMSNSPLRENALSDISDMLKNLTESHTSKSSTPSSISEKSDIDGATLEEAEESTPAQKRKGRQSNWNPQHLLILQAQFAASLRQTSEGKYIMSDLSPQERMHISRFTGLSMTTISHWLANVKYQLRRTGGTKFLKNLDTGHPVFFCNDCASQIRTPSTYISHLESHLGFRLRDLSKLSTEQINSQIAQTKSPSEKMVTSSPEEDLGTSYQCKLCNRTFASKHAVKLHLSKTHGKSPEDHLLYVSELEKQ | soluble
RRRPLSCDAASQAGSNYPRCWNCGGPWGPGREDRFFCPQCRALQAPDPTRDYFSLMDCNRSFRVDTAKLQHRYQQLQRLVHPDFFSQRSQTEKDFSEKHSTLVNDAYKTLLAPLSRGLYLLKLHGIEIPERTDYEMDRQFLIEIMEINEKLAEAESEAAMKEIESIVKAKQKEFTDNVSSAFEQDDFEEAKEILTKMRYFSNIEEKIKLKKIPL | not soluble
RRRRPSSSRRLRGRGAAQMACPALGLEALQPLQPEPPPEPAFSEAQKWIEQVTGRSFGDKDFRTGLENGILLCELLNAIKPGLVKKINRLPTPIAGLDNIILFLRGCKELGLKESQLFDPSDLQDTSNRVTVKSLDYSRKLKNVLVTIYWLGKAANSCTSYSGTTLNLKEFEGLLAQMRKDTDDIESPKRSIRDSGYIDCWDSERSDSLSPPRHGRDDSFDSLDSFGSRSRQTPSPDVVLRGSSDGRGSDSESDLPHRKLPDVKKDDMSARRTSHGEPKSAVPFNQYLPNKSNQTAYVPAPLRKKKAEREEYRKSWSTATSPLGGERPFRYGPRTPVSDDAESTSMFDMRCEEEAAVQPHSRARQEQLQLINNQLREEDDKWQDDLARWKSRRRSVSQDLIKKEEERKKMEKLLAGEDGTSERRKSIKTYREIVQEKERRERELHEAYKNARSQEEAEGILQQYIERFTISEAVLERLEMPKILERSHSTEPNLSSFLNDPNPMKYLRQQSLPPPKFTATVETTIARASVLDTSMSAGSGSPSKTVTPKAVPMLTPKPYSQPKNSQDVLKTFKVDGKVSVNGETVHREEEKERECPTVAPAHSLTKSQMFEGVARVHGSPLELKQDNGSIEINIKKPNSVPQELAATTEKTEPNSQEDKNDGGKSRKGNIELASSEPQHFTTTVTRCSPTVAFVEFPSSPQLKNDVSEEKDQKKPENEMSGKVELVLSQKVVKPKSPEPEATLTFPFLDKMPEANQLHLPNLNSQVDSPSSEKSPVTTPQFKFWAWDPEEERRRQEKWQQEQERLLQERYQKEQDKLKEEWEKAQKEVEEEERRYYEEERKIIEDTVVPFTVSSSSADQLSTSSSMTEGSGTMNKIDLGNCQDEKQDRRWKKSFQGDDSDLLLKTRESDRLEEKGSLTEGALAHSGNPVSKGVHEDHQLDTEAGAPHCGTNPQLAQDPSQNQQTSNPTHSSEDVKPKTLPLDKSINHQIESPSERRKKSPREHFQAGPFSPCSPTPPGQSPNRSISGKKLCSSCGLPLGKGAAMIIETLNLYFHIQCFRCGICKGQLGDAVSGTDVRIRNGLLNCNDCYMRSRSAGQPTTL | soluble
RSKYNAKKVVIDNIKFDSKAEAAYYQQLKLLKMSGEVVSFDLQPEFVLQESFRKNGKLYRAIKYKADFLVRYSDGHEELIDIKGMLTKEFRIKQKLFELRYMQSIKCLKLKGRNFVEV | not soluble
RTCRIHEISCGAHSTQCIPVSWRCDGENDCDSGEDEENCGN | soluble
SAAGSEATTPVIVAAGAGGEEGEHVKPFKPEKAKEIIMSLQQPAIFCNMVFDWPARHWNAKYLSQVLHGKQIRFRMGMKSMSTVPQFETTCNYVEATLEEFLTWNCDQSSISGPFRDYDHSKFWAYADYKYFVSLFEDKTDLFQDVKWSDFGFPGRNGQESTLWIGSLGAHTPCHLDSYGCNLVFQVQGRLECNGMIIAPGPQAILLPQPLKYLGLQETMASLSS | soluble
SAASEHRCVGCGFRVKSLFIQYSPGNIRLMKCGNCKEVADEYIECERMIIFIDLILHRPKVYRHVLYNAINPATVNIQHLLWKLVFAYLLLDCYRSLLLRKSDEESSFSDSPVLLSIKVRSFLFNGLN | soluble
SAAVALRDSAQGTVTFEDVAVNFSQEEWSLLSEAQRCLYHDVMLENLTLISSLGCWYGAKDETPSKQTLSIQQESPLRTHWTGVCTKKVHLWGMCGPLLGDILHQGTQHNQKLNGFGAYEKKLDDDANHHQDQKQHIGEKSYRSNAKENE | soluble
SADDFGFFSSSESGAPEAAEEDPAAAFLAQQESEIAGIENDEGFGAPAGSHAAPAQPGPTSGAGSEDMGTTVNGDVFQEANGPADGYAAIAQADRLTQEPESIRKWREEQRKRLQELDAASKVTEQEWREKAKKDLEEWNQRQSEQVEKNKINNRASEEAFVKESKEETPGTEWEKVAQLCDFNPKSSKQCKDVSRLRSVLMSLKQTPLSR | soluble
SADSKEGVLPLTAASTAPISFGFTRTSARRRLADSGDGAGPSPEEKDFLKTVEGRELQSVKPQEAPKELVIPLIQNGHRRQPPARPPGPSTDTGALADGVVSQAVKELIAESKKSLEERENAGVDPTLAIPMIQKGCTPSGEGADSEPRAETVPEEANYEAVPVEAYGLAMLRGMGWKPGEGIGRTFNQVVKPRVNSLRPKGLGLGANLTEAQALTPTGPSRMPRPDEEQEKDKEDQPQGLVPGGAVVVLSGPHRGLYGKVEGLDPDNVRAMVRLAVGSRVVTVSEYYLRPVSQQEFDKNTLDLRQQNGTASSRKTLWNQELYIQQDNSERKRKHLPDRQDGPAAKSEKAAPRSQHWLHRDLRVRFVDNMYKGGQYYNTKMIIEDVLSPDTCVCRTDEGRVLEGLREDMLETLVPKAEGDRVMVVLGPQTGRVGHLLSRDRARSRALVQLPRENQVVELHYDAICQYMGPSDTDDD | soluble
SAGTGLVAGEVVVDALPYFDQGYEAPGVREAAAALVEEETRRYRPTKNYLSYLTAPDYSAFETDIMRNEFERLAARQPIELLSMKRYELPAPSSGQKNDITAWQECVNNSMAQLEHQAVRIENLELMSQHGCNAWKVYNENLVHMIEHAQKELQKLRKHIQDLNWQRKNMQLTAGSKLREMESNWVSLVSKNYEIERTIVQLENEIYQIKQQHGEANKENIRQDF | soluble
SAMKPTAGPTTNADLTSAPPHDIFISHAWEDKADFVEALAHTLRAAGAEVWYDDFSLRPGDSLRRSIDKGLGSSRFGIVVLSTHFFKKEWPQKELDGLFQLESSGRSRILPIWHKVSKDEVASFSPTMADKLAFNTSTKSVDEIVADLMAIIRD | soluble
SAMNGFERELQSRVLSVIPHGELEGVNGPLQNYTKTMNQALQHEHVVAAAPYVRFTGLAEKGSKLKAIEVRGVDPAYEQAVSSMSDFIDPEAWQNFYSGQQQVILGRGVANELKVQVGDYVTLMIPQTGGTNKVQAPKRVRVKVAGFLTLNGQIDHSLALVPLADAQQYVRLGDGVTGISLKTDDVLDAPSIVREVGNLVNVYVYLKSWQQQFGFLYRDIQLVRT | soluble
SAQEKMELDLELPPGTGGSPAEGGGSGGGGGLRRSNSAPLIHGLSDTSPVFQAEAPSARRNSTTFPSRHGLLLPASPVRMHSSRLHQIKQEEGMDLINRETVHEREVQTAMQISHSWEESFSLSDNDVEKSASPKRIDFIPVSPAPSPTRGIGKQCFSPSLQSFVSSNGLPPSPIPSPTTRFTTRRSQSPINCIRPSVLGPLKRKCEMETEYQPKRFFQGITNMLSSDVAQLSDPGVCVSSDTLDGNSSSAGSSCNSPAKVSTTTDSPVSPAQAASPFIPLDELSSK | soluble
SATFVSELEAAKKNLSEALGDNVKQYWANLKLWFKQKISKEEFDLEAHRLLTQDNVHSHNDFLLAILTRCQILVSTPDGAGSLPWPGGSAAKPGKPKGKKKLSSVRQKFDHRFQPQNPLSGAQQFVAKDPQDDDDLKLCSHTMMLPTRGQLEGRMIVTAYEHGLDNVTEEAVSAVVYAVENHLKDILTSVVSRRKAYRLRDGHFKYAFGSNVTPQPYLKNSVVAYNNLIESPPAFTAPCAGQNPASHPPPDDAEQQAALLLACSGDTLPASLPPVNMYDLFEALQVHREVIPTHTVYALNIERIITKLWHPNHEELQQDKVHRQRLAAKEGLLLC | soluble
SAYIHIPFCEHICHYCDFNKYFIQSQPVDEYLNALEQEMINTIAKTGQPDLKTIFIGGGTPTSLSEEQLKKLMDMINRVLKPSSDLSEFAVDANPDDLSAEKLKILKEAGVNRLSFGVQTFEDDLLEKIGRVHKQKDVFTSFERAREIGFENISLDLMFGLPGQTLKHLEHSINTALSLDAEHYSVYSLIVEPKTVFYNLMQKGRLHLPPQEQEAEMYEIVMSKMEAHGIHQYEISNFAKAGMESKHNLTYWSNEQYFGFGAGAHGYIGGTRTVNVGPVKHYIDLIAEKGFPYRDTHEVTTEEQIEEEMFLGLRKTAGVSKKRFAEKYGRSLDGLFPSVLKDLAEKGLIHNSES | not soluble
SDAALLLNVEGVKKTILHGGTGELPNFITGSRVIFHFRTMKCDEERTVIDDSRQVGQPMHIIIGNMFKLEVWEILLTSMRVHEVAEFWCDTIHTGVYPILSRSLRQMAQGKDPTEWHVHTCGLANMFAYHTLGYEDLDELQKEPQPLVFVIELLQVDAPSDYQRETWNLSNHEKMKAVPVLHGEGNRLFKLGRYEEASSKYQEAIICLRNLQTKEKPWEVQWLKLEKMINTLILNYCQCLLKKEEYYEVLEHTSDILRHHPGIVKAYYVRARAHAEVWNEAEAKADLQKVLELEPSMQKAVRRELRLLENRMAEKQEEERLRCRNMLSQGATQPPAEPPTEPPAQSSTEPPAEPPTAPSAELSAGPPAEPATEPPPSPGHSLQH | soluble
